Values of other authors, collected in article PMC12030383, “Pharmacokinetics, Pharmacodynamics, and Bioequivalence of Test Insulin Glargine Versus Reference Preparation (Lantus®) in Healthy Male Volunteers—By Euglycemic Clamp Technique” (Pharmaceutics, 2025).

Procedure: After subcutaneous injection, the acidic solution in insulin is neutralized so that the insulin analog forms a precipitated microscopic deposit at the injection site, thus allowing for a slow and continuous release of insulin glargine from the injection site into the bloodstream, resulting in a smooth and predictable blood concentration without peaks for up to 24 h. Therefore, insulin glargine can be administered ...

## Insulin glargine
Acidic solutions
  solubility in acidic solutions: completely soluble
Neutral solutions
  solubility in neutral solutions: low solubility
